Data: IntAct's records for PubMed 10629049

What was measured:
[1] = molecular target: creb3_human CREB3 (UniProt O43889)
[2] = molecular target: po2f1_human POU2F1 (UniProt P14859)
Chain of UniProt P14859 (P14859 whole entry): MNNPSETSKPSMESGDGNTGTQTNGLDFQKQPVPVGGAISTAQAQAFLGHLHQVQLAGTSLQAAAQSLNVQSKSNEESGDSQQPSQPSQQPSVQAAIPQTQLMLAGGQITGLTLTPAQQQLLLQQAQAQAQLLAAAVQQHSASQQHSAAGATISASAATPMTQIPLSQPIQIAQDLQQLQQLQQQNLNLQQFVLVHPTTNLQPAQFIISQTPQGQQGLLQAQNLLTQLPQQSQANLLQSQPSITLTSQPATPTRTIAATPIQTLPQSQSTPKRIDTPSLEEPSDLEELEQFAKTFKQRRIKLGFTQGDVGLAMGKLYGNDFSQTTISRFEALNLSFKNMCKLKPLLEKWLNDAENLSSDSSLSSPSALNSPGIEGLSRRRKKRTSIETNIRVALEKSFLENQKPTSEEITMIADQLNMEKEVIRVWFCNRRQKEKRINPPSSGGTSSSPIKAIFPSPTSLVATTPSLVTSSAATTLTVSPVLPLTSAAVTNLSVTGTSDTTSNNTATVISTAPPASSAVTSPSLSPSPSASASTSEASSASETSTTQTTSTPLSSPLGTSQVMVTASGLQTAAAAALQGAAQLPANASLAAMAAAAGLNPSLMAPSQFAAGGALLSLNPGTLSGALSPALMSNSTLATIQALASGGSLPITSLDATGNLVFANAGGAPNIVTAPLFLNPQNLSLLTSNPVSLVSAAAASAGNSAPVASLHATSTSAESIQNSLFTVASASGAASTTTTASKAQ

Chain of UniProt O43889 (O43889 whole entry): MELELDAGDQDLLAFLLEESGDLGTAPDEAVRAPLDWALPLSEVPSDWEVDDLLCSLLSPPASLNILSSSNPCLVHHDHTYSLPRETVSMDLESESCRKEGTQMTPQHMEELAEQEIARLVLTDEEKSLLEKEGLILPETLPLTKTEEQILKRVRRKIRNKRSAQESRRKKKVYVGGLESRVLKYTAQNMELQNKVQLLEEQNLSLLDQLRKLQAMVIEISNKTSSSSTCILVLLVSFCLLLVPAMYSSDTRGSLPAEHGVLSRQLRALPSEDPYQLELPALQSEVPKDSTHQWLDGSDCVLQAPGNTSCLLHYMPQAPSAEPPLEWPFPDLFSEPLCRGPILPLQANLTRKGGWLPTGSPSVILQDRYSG

Host cell factor 1 (Homo sapiens), P51610 C82D
effect of a mutation on the interaction [1]: decreasing interaction

Host cell factor 1 (Homo sapiens), P51610 E289A;W290A;K291A
effect of a mutation on the interaction [2]: decreasing interaction
effect of a mutation on the interaction [1]: decreasing interaction

Host cell factor 1 (Homo sapiens), P51610 P30S
effect of a mutation on the interaction [1]: decreasing interaction

Host cell factor 1 (Homo sapiens), P51610 P79S
effect of a mutation on the interaction [1]: decreasing interaction

Host cell factor 1 (Homo sapiens), P51610 P134S
effect of a mutation on the interaction [2]: decreasing interaction
effect of a mutation on the interaction [1]: decreasing interaction

Host cell factor 1 (Homo sapiens), P51610 P197S
effect of a mutation on the interaction [1]: decreasing interaction

Host cell factor 1 (Homo sapiens), P51610 P319S
effect of a mutation on the interaction [1]: decreasing interaction

Host cell factor 1 (Homo sapiens), P51610 R228D
effect of a mutation on the interaction [1]: decreasing interaction

Host cell factor 1 (Homo sapiens), P51610 R344A;K345A
effect of a mutation on the interaction [2]: decreasing interaction

Host cell factor 1 (Homo sapiens), P51610 S338A
effect of a mutation on the interaction [1]: decreasing interaction
